What was measured:
[1] = test system: monocytes from human whole blood; assay: Formation of superoxide radical anions; format: cell-based; design: Superoxide activity: unit not given here; conditions: for Superoxide activity: test substance 50 pg/ml, 3 h incubation; for formation of superoxide radical anions (comparison in words): compared with the other substances tested
Procedure: Determination of the formation of superoxide radical anions in monocytes from human whole blood was carried out as follows:
Isolation of peripheral mononuclear cells is carried out by density gradient centrifugation from heparinized whole blood. The blood is diluted 1:2 with PBS (without Ca/Mg) and layered onto 15 ml of Histopaque-1077. After this, the cell suspension is centrifuged for 30 min at 700×g and 20° C. The interphase with the mononuclear cells is carefully removed with a Pasteur pipette, made up with 30 ml of PBS (without Ca/Mg), and centrifuged for 5 min at 350×g. The supernatant is decanted, and the cells are taken up in RPMI 1640 medium and counted in the flow cytometer. The cells are adjusted to 10^5 monocytes/ml. For the test batch, 1 ml of cell suspension is pipetted into each 5 ml tube. LPS 100 ng/ml is used as a control. The test substance (GcMAF, GcMAF-calciol or GcMAF-calcitriol) is used in a concentration of 50 pg/ml. The cells are incubated for a total of 3 h in the CO2 incubator. 15 min before the end of incubation, 5 μl each of CD45-V450 antibody and 1 μl of a 1 mM MitoSOX stock solution are added. After this, the cell suspension is made up with 2 ml each of RPMI medium and centrifuged for 5 min at 350×g at room temperature. The supernatant is decanted, and the cells are resuspended in 500 μl of RPMI medium. The cells are measured and analyzed in the flow cytometer. Evaluation is carried out based on the average fluorescence intensity, as described by Saharuddin Bin Mohamad, Hideko Nagasa Wa, Yoshihiro Uto, and Hitoshi Hori in “Preparation of Gc Protein-Derived Macrophage Activating Factor (GcMAF) and its Structural Characterization and Biological Activities”, Anticancer Research 22: 4297-4300 (2002).
Superoxide formation assay
The method used was a modified version of that described by Johnston et al. In brief, after three-hour treatment of the samples, the plates were washed twice with PBS (-) and once with Krebs-Ringer phosphate buffer, pH 7.4, 1.5 ml of 50 μM cytochrome C in Krebs-Ringer phosphate buffer was added, and phorbol myristate acetate (PMA) was added to a final concentration of 5 μg/ml in each well and cultured for 90 minutes in a moistened incubator.
The reaction was stopped using an ice bath. The cultured medium was placed in an Eppendorf tube and centrifuged at 8000 g. The optical density of the supernatant was spectrometrically determined at 550 nm with reference at 540 nm (U-2000, Hitachi) using mixtures of plates without cells as a blank measurement. The concentration of reduced cytochrome C was determined using the equation E550nm=[…].

Peritoneal mouse cells = assay: Phagocytosis activation (phagocytosis index, opsonized sheep red blood cells); format: cell-based; conditions: for phagocytic activity (comparison in words): compared with GcMAF-calcitriol or GcMAF alone; for Macrophage activity: phagocytosis index, three hours of drug treatment, opsonized SRBC cultured for 90 minutes, 250 macrophages counted
Procedure: Phagocytosis activation was determined as described by Hammarstrom S and Kabat EA in “Studies on specificity and binding properties of the blood group A reactive hemagglutinin from Helix pomatia”, Biochemistry 10: 1684-1692, 1971.
Peritoneal mouse cells were coated in a 24-well plate onto cover glasses. After three hours of drug treatment, the cultures were tested for phagocytic activity. Sheep red blood cells (SRBC) were opsonized using hemolytic rabbit serum (anti-sheep red blood C12HSB cells, Serotec Ltd. England). Opsonized SRBC (0.5%) in RPMI 1640 (serum-free) were layered onto each macrophage-coated cover glass and cultured for 90 minutes. The non-internalized erythrocytes were lyzed by immersing the cover glass in a hypotonic solution (⅕ PBS). The macrophages were fixed with methanol, air-dried, and Giemsa stained. The number of phagocytosed erythrocytes per cell was microscopically determined; 250 macrophages were counted for each data point. The data are expressed as a phagocytosis index, which is defined as the percentage of macrophages with engulfed erythrocytes multiplied by the average number of erythrocytes per macrophage.

[2] = test system: receptor sites of the ELISA test; assay: Binding to the receptor sites of the ELISA test for vitamin D; conditions: ELISA test selective for calcidiol
Description: The standard test for vitamin D in the blood, the ELISA test, is selective for calcidiol (which has an OH group at position 25). […] The same applies for the complex GcMAF-calcitriol.

Toxicity = assay: Toxicity
Description: (§1) The complex according to the invention can be orally administered. […] Moreover, the complex according to the invention is not toxic.

[3] = Vitamin D content in the blood after oral administration; format: in vivo
Description: as §1

monocytic cells = assay: Monocytic cells after oral administration; format: in vivo

Molecule	Superoxide activity [1]	phagocytic activity (comparison in words) (Peritoneal mouse cells)	Macrophage activity (Peritoneal mouse cells)	binding to the receptor sites of the ELISA test [2]	toxicity (Toxicity)	formation of superoxide radical anions (comparison in words) [1]	formation of superoxide radical anions (comparison in words) ([1]; listed as complex according to the invention)	vitamin D content in the blood ([3]; 12 h after oral administration, 35.9 nM before administration)	absorption in oral administration ([3]; oral administration)	monocytic cells, subsequently converted into macrophages (monocytic cells)
GcMAF-calcitriol: comparative complex; same production method carried out with calcitriol instead of cholecalciferol (protein, UniProt P02774 17-474, looked up, deglycosylated (GcMAF); complexed with calcitriol, comparative complex; same production method carried out with calcitriol instead of cholecalciferol) Vitamin D-binding protein: LERGRDYEKNKVCKEFSHLGKEDFTSLSLVLYSRKFPSGTFEQVSQLVKEVVSLTEACCAEGADPDCYDTRTSALSAKSCESNSPFPVHPGTAECCTKEGLERKLCMAALKHQPQEFPTYVEPTNDEICEAFRKDPKEYANQFMWEYSTNYGQAPLSLLVSYTKSYLSMVGSCCTSASPTVCFLKERLQLKHLSLLTTLSNRVCSQYAAYGEKKSRLSNLIKLAQKVPTADLEDVLPLAEDITNILSKCCESASEDCMAKELPEHTVKLCDNLSTKNSKFEDCCQEKTAMDVFVCTYFMPAAQLPELPDVELPTNKDVCDPGNTKVMDKYTFELSRRTHLPEVFLSKVLEPTLKSLGECCDVEDSTTCFNAKGPLLKKELSSFIDKGQELCADYSENTFTEYKKKLAERLKAKLPDATPTELAKLVNKHSDFASNCCSINSPPLYCDSEIDAELKNIL	188	virtually identical to the phagocytic activity of GcMAF alone	73.2	does not bind						
GcMAF, produced as described: selectively deglycosylated vitamin D-binding protein, self-produced, with final filtration via a 100,000 Da filter (protein, UniProt P02774 17-474, looked up, selectively deglycosylated (GcMAF)) Vitamin D-binding protein: LERGRDYEKNKVCKEFSHLGKEDFTSLSLVLYSRKFPSGTFEQVSQLVKEVVSLTEACCAEGADPDCYDTRTSALSAKSCESNSPFPVHPGTAECCTKEGLERKLCMAALKHQPQEFPTYVEPTNDEICEAFRKDPKEYANQFMWEYSTNYGQAPLSLLVSYTKSYLSMVGSCCTSASPTVCFLKERLQLKHLSLLTTLSNRVCSQYAAYGEKKSRLSNLIKLAQKVPTADLEDVLPLAEDITNILSKCCESASEDCMAKELPEHTVKLCDNLSTKNSKFEDCCQEKTAMDVFVCTYFMPAAQLPELPDVELPTNKDVCDPGNTKVMDKYTFELSRRTHLPEVFLSKVLEPTLKSLGECCDVEDSTTCFNAKGPLLKKELSSFIDKGQELCADYSENTFTEYKKKLAERLKAKLPDATPTELAKLVNKHSDFASNCCSINSPPLYCDSEIDAELKNIL	199		73.0							
Gc-calcidiol: complex of vitamin D-binding protein (Gc) and calcidiol (protein, UniProt P02774 17-474, looked up, complexed with calcidiol) Vitamin D-binding protein: LERGRDYEKNKVCKEFSHLGKEDFTSLSLVLYSRKFPSGTFEQVSQLVKEVVSLTEACCAEGADPDCYDTRTSALSAKSCESNSPFPVHPGTAECCTKEGLERKLCMAALKHQPQEFPTYVEPTNDEICEAFRKDPKEYANQFMWEYSTNYGQAPLSLLVSYTKSYLSMVGSCCTSASPTVCFLKERLQLKHLSLLTTLSNRVCSQYAAYGEKKSRLSNLIKLAQKVPTADLEDVLPLAEDITNILSKCCESASEDCMAKELPEHTVKLCDNLSTKNSKFEDCCQEKTAMDVFVCTYFMPAAQLPELPDVELPTNKDVCDPGNTKVMDKYTFELSRRTHLPEVFLSKVLEPTLKSLGECCDVEDSTTCFNAKGPLLKKELSSFIDKGQELCADYSENTFTEYKKKLAERLKAKLPDATPTELAKLVNKHSDFASNCCSINSPPLYCDSEIDAELKNIL				does not bind						
GcMAF, purchased from Metavectrum, Germany: GcMAF purchased from Metavectrum, Germany (protein, UniProt P02774 17-474, looked up, selectively deglycosylated (GcMAF)) Vitamin D-binding protein: LERGRDYEKNKVCKEFSHLGKEDFTSLSLVLYSRKFPSGTFEQVSQLVKEVVSLTEACCAEGADPDCYDTRTSALSAKSCESNSPFPVHPGTAECCTKEGLERKLCMAALKHQPQEFPTYVEPTNDEICEAFRKDPKEYANQFMWEYSTNYGQAPLSLLVSYTKSYLSMVGSCCTSASPTVCFLKERLQLKHLSLLTTLSNRVCSQYAAYGEKKSRLSNLIKLAQKVPTADLEDVLPLAEDITNILSKCCESASEDCMAKELPEHTVKLCDNLSTKNSKFEDCCQEKTAMDVFVCTYFMPAAQLPELPDVELPTNKDVCDPGNTKVMDKYTFELSRRTHLPEVFLSKVLEPTLKSLGECCDVEDSTTCFNAKGPLLKKELSSFIDKGQELCADYSENTFTEYKKKLAERLKAKLPDATPTELAKLVNKHSDFASNCCSINSPPLYCDSEIDAELKNIL	150		68							
GcMAF-calciol: dimeric complex of a selectively deglycosylated vitamin D-binding protein (GcMAF) and cholecalciferol (calciol) (protein, UniProt P02774 17-474, looked up, deglycosylated (GcMAF); complexed with cholecalciferol) Vitamin D-binding protein: LERGRDYEKNKVCKEFSHLGKEDFTSLSLVLYSRKFPSGTFEQVSQLVKEVVSLTEACCAEGADPDCYDTRTSALSAKSCESNSPFPVHPGTAECCTKEGLERKLCMAALKHQPQEFPTYVEPTNDEICEAFRKDPKEYANQFMWEYSTNYGQAPLSLLVSYTKSYLSMVGSCCTSASPTVCFLKERLQLKHLSLLTTLSNRVCSQYAAYGEKKSRLSNLIKLAQKVPTADLEDVLPLAEDITNILSKCCESASEDCMAKELPEHTVKLCDNLSTKNSKFEDCCQEKTAMDVFVCTYFMPAAQLPELPDVELPTNKDVCDPGNTKVMDKYTFELSRRTHLPEVFLSKVLEPTLKSLGECCDVEDSTTCFNAKGPLLKKELSSFIDKGQELCADYSENTFTEYKKKLAERLKAKLPDATPTELAKLVNKHSDFASNCCSINSPPLYCDSEIDAELKNIL	142	significantly higher	83.5	does indeed bind	not toxic	lower	lowest of all of the substances tested	44.25 nM	absorbed by the body in oral administration	significant increase

Reference: US20190134064A1, “SELECTIVELY DEGLYCOSYLATED VITAMIN D-BINDING PROTEIN (GCMAF), CHOLECALCIFEROL (CALCIOL), AND PRODUCTION METHOD” (HG PHARMA GMBH, priority 2016, published 2019)
